Molecular target: normal undigested taxol microtubules (αβ-MTs) of porcine brain tubulin (porcine (brain)) (UniProt P02550)
Test: co-sedimentation

Kd: 0.51 µM
percent dissociated at 100 mM NaCl: 30%
Substance: CLIP-170 MT-binding domain fragment H1^1–350 (from UniProt P30622 1-350) (domain or fragment)

Reference: article PMC2990918
